Experimental data taken from US20250042997A1 (PHYLAXIS BIOSCIENCE, published 2025).

Key:
[1] = target: T1, human Siglec-8 (full-length, on transfected CHO or 293 cells, or native on human eosinophils) (human, UniProt Q9NYZ4 17-499); test: flow cytometry, CHO cells transiently transfected with full-length human Siglec-8 (apparent affinity)
Experimental: (§1) Binding of the anti-human Siglec-8 VHHs, B12, D1, E2, and G2, as a bivalent VHH-hIgG1-xELL-Fc (VHH of SEQ ID NO: 49, 55, 61, and 1, respectively linked to an Fe xELL via linker 2, these constructs are also designated cx8982, cx8983, cx8984, and cx10382, respectively) was determined by flow cytometry using CHO cells that had been transiently transfected with full-length human Siglec-8. Binding specificity was assessed using untransfected (UT) CHO cells as a control. For the binding assays, 50,000 Siglec-8 CHOs or UT CHOs were seeded in a 96-well plate and a titration of anti-Siglec8-VHH-xELL was added in FACS Buffer (PBS 1% BSA, 0.1% NaN3 pH 7.4) incubating for 30 minutes at 4° C. After washing, the plates were incubated with an A647-conjugated anti-human Fcγ specific secondary antibody (Jackson ImmunoResearch) diluted 1:2000 in FACS buffer for 30 minutes at 4° C. The plates were washed, and binding was determined by flow cytometry quantitating anti-human A647 mean fluorescent intensity using an Intellicyt iQue Plus.
(§2) The binding was specific to Siglec-8 as there was no detectable binding to untransfected CHO cells for any of the tested constructs.

[2] = target: T1, human Siglec-8 (full-length, on …); test: flow cytometry on CHO cells transiently transfected with full-length human Siglec-8; A647 anti-human Fc-gamma secondary; Mean RL1-H
Experimental: as §1, §2

[3] = target: T1, human Siglec-8 (full-length, on …); test: flow cytometry on human eosinophils (CD16- CCR3+) from whole blood; anti-human AF647 secondary; MFI
Excerpt: To determine if increasing the valency of Siglec-8 antibodies could enhance agonist activity, the parental llama B12, D1 and E2 VHH sequences were used to generate tetravalent (Tet-B12 (cx8467; SEQ ID NO:50 linked to an Fe), Tet-D1 (cx8469; SEQ ID NO:56 linked to an Fe), and Tet-E2 (cx8463; SEQ ID NO:62 linked to an Fc)) and hexavalent (Hex-B12 (cx8466; SEQ ID NO:51 linked to an Fe), Hex-D1 (cx8523; SEQ ID NO:57 linked to an Fe), and Hex-E2 (cx8522; SEQ ID NO:165 linked to an Fc)), Siglec8-VHH-Fc antibodies linked to a reduced effector function xELL human Fc region via linker 2. The bivalent (Bi-B12 (cx8982), Bi-D1 (cx8983) and Bi-E2 (cx8984)), tetravalent, and hexavalent Siglec8-VHH-Fc antibodies were assessed by flow cytometry for binding to eosinophils (CD16⁻ CCR3⁺). Cells were isolated from whole blood by centrifugation, washed twice with 2% FBS PBS, and resuspended in 1×RBC lysis buffer for 10 minutes at room temperature (RT), washed once in 2% FBS PBS and treated with a second RBC lysis step and washed twice with 2% FBS. Cells were seeded at 200 k/well and resuspended in Human FC block for 10 minutes at RT. Cells were spun down and then resuspended in titrated test articles starting at 200 nM 1:4 and incubated for 30 minutes at 4° C. before being washed twice and resuspended in secondary mixture (2*; anti-CCR3 FITC, anti-human AF647, PI, anti-CD16 BV605) and incubated for 30 minutes at 4° C., washed twice, and bound antibodies were detected via flow cytometry (Novocyte).
As shown in FIG. 2A-2C, bivalent, tetravalent, and hexavalent Siglec8-VHH-Fc antibodies B12 (FIG. 2A), D1 (FIG. 2B) and E2 (FIG. 2C) bound to eosinophils. The calculated affinity was similar between the bivalent, tetravalent, and hexavalent hzSiglec8-VHH-Fc antibodies. The observed Bmax was reduced with increasing valency as anticipated, due the fact that the Fc portion of the antibody was detected in this assay and the ratio of Fc regions to anti-Siglec-8 binding domains is inverse to valency. No binding was observed on other granulocyte populations (CD16⁺ CCR3⁻).

[4] = target: T1, human Siglec-8 (full-length, on …); test: flow cytometry on 293 cells transiently transfected with full-length human Siglec-8; A647 anti-human Fc-gamma secondary; median fluorescence, nonlinear fit; table under the graph
Experimental: (§3) The binding of the lmG2 and humanized versions (further including Siglec8 hzG2v14), formatted as monomeric VHH-hIgG1 fusions proteins using a non-dimerizing human IgG1 Fe variant region lacking a hinge Fe NNT, was assessed by flow cytometry using 293 cells that had been transiently transfected with full-length human Siglec-8 and detected with an anti-human AF647 secondary antibody. Binding specificity was assessed using untransfected 293 cells as a control. For the binding assays, Siglec-8 293 cells or untransformed 293 cells were seeded in a 96 well U-bottom plate with 50 k cells/well in FACS buffer and incubated at 4° C. with a titration of anti-Siglec8-VHH-NNT for 30 minutes. After washing, the plates were incubated with an A647-conjugated anti-human Fcγ specific secondary antibody diluted 1:10,000 in FACS buffer for 20 minutes at 4° C. The plates were washed, and binding was determined by flow cytometry quantitating anti-human A647 median fluorescent intensity. The maximum specific binding (Bmax) and affinity (Kd) for was determined from the flow cytometry binding data using a nonlinear fit model.

[5] = target: T1, human Siglec-8 (full-length, on …); test: flow cytometry on 293 cells transiently transfected with full-length human Siglec-8; A647 anti-human Fc-gamma secondary; median fluorescence, nonlinear fit; table under the graph (Kd column without unit, concentration axis nM Ab)
Experimental: as §3

[6] = target: T1, human Siglec-8 (full-length, on …); test: as above; remark: listed apart in the source
Experimental: as §3

T1 sequence (Q9NYZ4 17-499): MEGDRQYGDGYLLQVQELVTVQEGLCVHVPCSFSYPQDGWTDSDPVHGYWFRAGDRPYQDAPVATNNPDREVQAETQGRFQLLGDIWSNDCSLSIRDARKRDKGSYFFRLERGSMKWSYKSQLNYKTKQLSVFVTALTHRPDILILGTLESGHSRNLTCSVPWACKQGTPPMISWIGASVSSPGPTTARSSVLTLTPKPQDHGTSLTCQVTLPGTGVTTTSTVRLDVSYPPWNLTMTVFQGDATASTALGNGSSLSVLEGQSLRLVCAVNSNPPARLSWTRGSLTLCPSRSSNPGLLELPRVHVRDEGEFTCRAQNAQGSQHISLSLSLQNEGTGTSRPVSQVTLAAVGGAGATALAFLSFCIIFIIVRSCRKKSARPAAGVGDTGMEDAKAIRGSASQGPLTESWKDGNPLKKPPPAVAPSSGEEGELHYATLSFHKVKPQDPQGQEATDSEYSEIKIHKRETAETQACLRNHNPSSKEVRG

Binder	Kd [1]	EC50 (read off the curve) [2]	Bmax [4]	Kd [5]	further results
anti-Siglec8-G2-xELL, bivalent VHH-hIgG1-xELL-Fc (Fc fusion, Homodimer through the Fc; also called cx10382) QVTLKESGGGLVRTGGSLRLSCAASGSISIFSMYVVAWYRQAPGKQREWVAFIQRGGTANYADSAKGRFTISRDNAKNTVYLQMASLKPDDTAVYYCNYINSDNEIGGPWGQGTQVTVKPGGGGDKTHTCPPCPAPGGPSVFLFPPKPKDTLMISRTPEVTCVVVDVSHEDPEVKFNWYVDGVEVHNAKTKPREEQYNSTYRVVSVLTVLHQDWLNGKEYKCKVSNKALPAPIEKTISKAKGQPREPQVYTLPPSRDELTKNQVSLTCLVKGFYPSDIAVEWESNGQPENNYKTTPPVLDSDGSFFLYSKLTVDKSRWQQGNVFSCSVMHEALHNHYTQKSLSLSPGK	268 pM	~300 pM			
anti-Siglec8-B12-xELL, bivalent VHH-hIgG1-xELL-Fc (Fc fusion, Homodimer through the Fc; also called cx8982; Bi-B12) QVQVVESGGGLVQPGGSLRLSCAASGSTSLLNAMAWYRQAPGKERELVAAISSGGGTYYADSVKGRFTISTNNAKNTLYLQMNSLKPEDTAMYYCAPGPNYSDYEEINWGQGTQVTVKPGGGGDKTHTCPPCPAPGGPSVFLFPPKPKDTLMISRTPEVTCVVVDVSHEDPEVKFNWYVDGVEVHNAKTKPREEQYNSTYRVVSVLTVLHQDWLNGKEYKCKVSNKALPAPIEKTISKAKGQPREPQVYTLPPSRDELTKNQVSLTCLVKGFYPSDIAVEWESNGQPENNYKTTPPVLDSDGSFFLYSKLTVDKSRWQQGNVFSCSVMHEALHNHYTQKSLSLSPGK	367 pM	~400 pM			EC50 (read off the curve) [3]: ~100 pM
anti-Siglec8-D1-xELL, bivalent VHH-hIgG1-xELL-Fc (Fc fusion, Homodimer through the Fc; also called cx8983; Bi-D1) QVQLVESGGGLVQPGGSLRLSCAASGSIASIHGMGWYRQAPGKERELVAAIAGEGSTYYADSVKGRFTISRDFAKNTLYLQMNNLKAEDTAMYYCANNDERDDYWGQGTQVTVKPGGGGDKTHTCPPCPAPGGPSVFLFPPKPKDTLMISRTPEVTCVVVDVSHEDPEVKFNWYVDGVEVHNAKTKPREEQYNSTYRVVSVLTVLHQDWLNGKEYKCKVSNKALPAPIEKTISKAKGQPREPQVYTLPPSRDELTKNQVSLTCLVKGFYPSDIAVEWESNGQPENNYKTTPPVLDSDGSFFLYSKLTVDKSRWQQGNVFSCSVMHEALHNHYTQKSLSLSPGK	427 pM	~500 pM			EC50 (read off the curve) [3]: ~60 pM
Siglec8 hzG2v17, monomeric VHH-hIgG1 fusion (Fc NNT) (Fc fusion, Monomeric format; not shown: non-dimerizing human IgG1 Fc variant lacking a hinge (Fc NNT)) EVQLLESGGGEVQPGGSLRLSCAASGSISIFSIYVVAWYRQAPGKEREWVAFIQRGGTANYAESAKGRFTISRDNAKNTVYLQMSSLRAEDTAVYYCNYINSDNEIGGPWGQGTLVTVKP			1.17e+06 Median (anti-human A647)	146 pM	
Siglec8 hzG2v30, monomeric VHH-hIgG1 fusion (Fc NNT) (Fc fusion, Monomeric format; not shown: non-dimerizing human IgG1 Fc variant lacking a hinge (Fc NNT)) EVQLLESGGGLVRTGGSLRLSCAASGSISIFSMYVVAWYRQAPGKQREWVAFIQRGGTANYAESAKGRFTISRDNAKNTVYLQMSSLRAEDTAVYYCNYINSDNEIGGPWGQGTLVTVKP					Kd [6]: 124 pM
Siglec8 hzG2v28, monomeric VHH-hIgG1 fusion (Fc NNT) (Fc fusion, Monomeric format; not shown: non-dimerizing human IgG1 Fc variant lacking a hinge (Fc NNT)) EVQLLESGGGEVQTGGSLRLSCAASGSISIFSMYVVAWYRQAPGKQREWVAFIQRGGTANYAESAKGRFTISRDNAKNTVYLQMSSLRAEDTAVYYCNYINSDNEIGGPWGQGTLVTVKP					Kd [6]: 96.6 pM
Siglec8 hzG2v25, monomeric VHH-hIgG1 fusion (Fc NNT) (Fc fusion, Monomeric format; not shown: non-dimerizing human IgG1 Fc variant lacking a hinge (Fc NNT)) EVQLLESGGGLVQTGGSLRLSCAASGSISIFSMYVVAWYRQAPGKQREWVAFIQRGGTANYAESAKGRFTISRDNAKNTVYLQMSSLRAEDTAVYYCNYINSDNEIGGPWGQGTLVTVKP				91.2 pM	
Siglec8 hzG2v26, monomeric VHH-hIgG1 fusion (Fc NNT) (Fc fusion, Monomeric format; not shown: non-dimerizing human IgG1 Fc variant lacking a hinge (Fc NNT)) EVQLLESGGGLVRPGGSLRLSCAASGSISIFSMYVVAWYRQAPGKQREWVAFIQRGGTANYAESAKGRFTISRDNAKNTVYLQMSSLRAEDTAVYYCNYINSDNEIGGPWGQGTLVTVKP				151 pM	
hzG2v19 (Fc fusion, also called Siglec8 hzG2v19; monomeric VHH-hIgG1 fusion (Fc NNT); not shown: The non-dimerizing, hinge-less human IgG1 Fc variant (Fc NNT) and any linker to it) VHH: EVQLLESGGGEVQPGGSLRLSCAASGSISIFSSYAVAWYRQAPGKEREWVAFIQRGGTANYAESAKGRFTISRDNAKNTVYLQMSSLRAEDTAVYYCNYINSDNEIGGPWGQGTLVTVKP			1.24e+06 Median (anti-human A647)	41900 pM	
Siglec8 hzG2v18, monomeric VHH-hIgG1 fusion (Fc NNT) (Fc fusion, Monomeric format; not shown: non-dimerizing human IgG1 Fc variant lacking a hinge (Fc NNT)) EVQLLESGGGEVQPGGSLRLSCAASGSISIFSKYVVAWYRQAPGKEREWVAFIQRGGTANYAESAKGRFTISRDNAKNTVYLQMSSLRAEDTAVYYCNYINSDNEIGGPWGQGTLVTVKP			1.05e+06 Median (anti-human A647)	263 pM	
Siglec8 hzG2v29, monomeric VHH-hIgG1 fusion (Fc NNT) (Fc fusion, Monomeric format; not shown: non-dimerizing human IgG1 Fc variant lacking a hinge (Fc NNT)) EVQLLESGGGEVRPGGSLRLSCAASGSISIFSMYVVAWYRQAPGKQREWVAFIQRGGTANYAESAKGRFTISRDNAKNTVYLQMSSLRAEDTAVYYCNYINSDNEIGGPWGQGTLVTVKP					Kd [6]: 111 pM
hzG2v21 (Fc fusion, also called Siglec8 hzG2v21; monomeric VHH-hIgG1 fusion (Fc NNT); not shown: The non-dimerizing, hinge-less human IgG1 Fc variant (Fc NNT) and any linker to it) VHH: EVQLLESGGGEVQPGGSLRLSCAASGSISIFSSYAMSWYRQAPGKEREWVAFIQRGGTANYAESAKGRFTISRDNAKNTVYLQMSSLRAEDTAVYYCNYINSDNEIGGPWGQGTLVTVKP			1.1e+06 Median (anti-human A647)	256000 pM	
anti-Siglec8-E2-xELL, bivalent VHH-hIgG1-xELL-Fc (Fc fusion, Homodimer through the Fc; also called cx8984; Bi-E2) QVQLVESGGGLVQPGGSLRLSCATSGIIFTSNVINWYRQAPGKQREFVAFITSITSGQSTMYADAVKGRFTVSRDNDKNIGYLQMTSLQPEDTARYVCNVGAYWGQGTQVTVKPGGGGDKTHTCPPCPAPGGPSVFLFPPKPKDTLMISRTPEVTCVVVDVSHEDPEVKFNWYVDGVEVHNAKTKPREEQYNSTYRVVSVLTVLHQDWLNGKEYKCKVSNKALPAPIEKTISKAKGQPREPQVYTLPPSRDELTKNQVSLTCLVKGFYPSDIAVEWESNGQPENNYKTTPPVLDSDGSFFLYSKLTVDKSRWQQGNVFSCSVMHEALHNHYTQKSLSLSPGK	331 pM	~400 pM			EC50 (read off the curve) [3]: ~100 pM
